Test results published in patent US11358997.

Target: mouse leptin receptor on Ba/F3-mLR cells (mouse) (UniProt P48356)
Assay: cell-based or functional assay

UniProt P48356, sequence (P48356 22-1162): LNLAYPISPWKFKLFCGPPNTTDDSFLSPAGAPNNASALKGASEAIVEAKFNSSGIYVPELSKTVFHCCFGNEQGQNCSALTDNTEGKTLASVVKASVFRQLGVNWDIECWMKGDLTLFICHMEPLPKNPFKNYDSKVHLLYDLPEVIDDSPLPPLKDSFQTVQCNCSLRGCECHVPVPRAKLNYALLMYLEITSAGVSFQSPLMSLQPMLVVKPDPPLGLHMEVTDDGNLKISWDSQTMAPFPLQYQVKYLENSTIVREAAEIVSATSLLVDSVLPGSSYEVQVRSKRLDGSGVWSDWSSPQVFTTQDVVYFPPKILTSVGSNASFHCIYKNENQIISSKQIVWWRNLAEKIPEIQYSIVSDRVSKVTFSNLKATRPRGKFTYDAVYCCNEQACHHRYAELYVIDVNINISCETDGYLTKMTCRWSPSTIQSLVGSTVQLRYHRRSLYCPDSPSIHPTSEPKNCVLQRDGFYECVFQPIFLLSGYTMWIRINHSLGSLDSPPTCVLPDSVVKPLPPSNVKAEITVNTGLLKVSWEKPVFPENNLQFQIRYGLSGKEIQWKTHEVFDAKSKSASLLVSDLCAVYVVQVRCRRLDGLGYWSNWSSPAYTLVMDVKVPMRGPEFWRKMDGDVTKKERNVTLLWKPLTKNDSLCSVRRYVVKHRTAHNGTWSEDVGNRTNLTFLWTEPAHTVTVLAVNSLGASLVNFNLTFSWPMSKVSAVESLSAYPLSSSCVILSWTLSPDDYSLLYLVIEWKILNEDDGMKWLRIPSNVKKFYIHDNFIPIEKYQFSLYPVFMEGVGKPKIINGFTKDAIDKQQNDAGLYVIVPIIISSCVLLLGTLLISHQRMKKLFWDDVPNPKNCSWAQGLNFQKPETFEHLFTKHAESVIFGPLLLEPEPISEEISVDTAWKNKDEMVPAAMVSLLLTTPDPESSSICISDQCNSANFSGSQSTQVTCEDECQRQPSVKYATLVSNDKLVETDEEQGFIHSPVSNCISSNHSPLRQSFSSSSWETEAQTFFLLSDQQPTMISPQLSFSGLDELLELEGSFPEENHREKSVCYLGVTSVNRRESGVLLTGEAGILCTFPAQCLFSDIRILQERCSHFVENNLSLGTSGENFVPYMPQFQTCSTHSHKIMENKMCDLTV

induction of proliferation of Ba/F3-mLR cells (XTT assay, 4 days) (times less potent)	Substance
3	scTNF WT-6xGGS-mLeptin L86S-FLAG (from UniProt P01375 77-233; P01375 80-233; P01375 80-233; P41160 22-167)
10	scTNF WT-6xGGS-mLeptin L86N-FLAG (from UniProt P01375 77-233; P01375 80-233; P01375 80-233; P41160 22-167)
